Reference: publication PMC4742562, “Structure and Interactions of a Dimeric Variant of sHIP, a Novel Virulence Determinant of Streptococcus pyogenes” (Frontiers in Microbiology, 2016)

Columns and labels:
[1] = biological target: the molecule itself; experiment: AUC; sedimentation velocity, 20°C, 50000 rpm, 20 mM MES pH 5.5; c(S) distribution compared with theoretical sedimentation coefficients (HYDROPRO)
[2] = biological target: T1, HRGsingle peptide (single heparin-binding motif of histidine-rich glycoprotein) (human); experiment: ITC; 0.5 mM HRGsingle peptide titrated into 0.05 mM sHIPwt or sHIPqp, 20 mM MES pH 5.5, 25°C; one independent binding site model; settings: both partners purified
T1 construct: also called GHHPHG; source: synthetic peptide (Biosyntan GmbH, Berlin)

B1: quadruple mutant protein sHIP, sHIPqp (natural protein)
chain: SMKQDQLIVEKMEQTYEAFSPKLANLIEALDAFKEHYEEYATLRNFYSSDEWFRLANQPWDDIPSGVLSEDLLFDMIGDHNQLAADIADLAPIMAKHM
notes: protein sHIP, S. pyogenes, UniProt Q99XU0, residues Lys3-Met98 with Leu84, Leu88, Tyr95 mutated to alanine and Cys65 to serine; Dimer by AUC and in the crystal; For NMR the protein was double-labelled (15N, 13C), grown in minimal medium; also called sHIPqp mutant; sHIP mutant; source: E. coli Rosetta BL21 (DE3), purified (IMAC, His-tag removed with TEV protease, reverse phase chromatography); not …
Q: Which “stoichiometry N” value [1] does the source give for B1 here?
A: 2

Q: What about the Kd [2] of the same binder?
A: 2800 ± 300 nM
